Data reported in publication doi:10.1101/200493.
Like-named read-outs stand apart in the source and are kept apart here.

Tests used:
[1] = biological target: His-tagged human recombinant αVβ3 integrin (human) (UniProt P06756); assay: BLI
[2] = biological target: His-tagged human recombinant αVβ3 integrin (human) (UniProt P06756); assay: BLI; remark: listed apart in the source

Sequence of His-tagged human recombinant αVβ3 integrin (human) (P06756 31-1048, chain 1 of 2): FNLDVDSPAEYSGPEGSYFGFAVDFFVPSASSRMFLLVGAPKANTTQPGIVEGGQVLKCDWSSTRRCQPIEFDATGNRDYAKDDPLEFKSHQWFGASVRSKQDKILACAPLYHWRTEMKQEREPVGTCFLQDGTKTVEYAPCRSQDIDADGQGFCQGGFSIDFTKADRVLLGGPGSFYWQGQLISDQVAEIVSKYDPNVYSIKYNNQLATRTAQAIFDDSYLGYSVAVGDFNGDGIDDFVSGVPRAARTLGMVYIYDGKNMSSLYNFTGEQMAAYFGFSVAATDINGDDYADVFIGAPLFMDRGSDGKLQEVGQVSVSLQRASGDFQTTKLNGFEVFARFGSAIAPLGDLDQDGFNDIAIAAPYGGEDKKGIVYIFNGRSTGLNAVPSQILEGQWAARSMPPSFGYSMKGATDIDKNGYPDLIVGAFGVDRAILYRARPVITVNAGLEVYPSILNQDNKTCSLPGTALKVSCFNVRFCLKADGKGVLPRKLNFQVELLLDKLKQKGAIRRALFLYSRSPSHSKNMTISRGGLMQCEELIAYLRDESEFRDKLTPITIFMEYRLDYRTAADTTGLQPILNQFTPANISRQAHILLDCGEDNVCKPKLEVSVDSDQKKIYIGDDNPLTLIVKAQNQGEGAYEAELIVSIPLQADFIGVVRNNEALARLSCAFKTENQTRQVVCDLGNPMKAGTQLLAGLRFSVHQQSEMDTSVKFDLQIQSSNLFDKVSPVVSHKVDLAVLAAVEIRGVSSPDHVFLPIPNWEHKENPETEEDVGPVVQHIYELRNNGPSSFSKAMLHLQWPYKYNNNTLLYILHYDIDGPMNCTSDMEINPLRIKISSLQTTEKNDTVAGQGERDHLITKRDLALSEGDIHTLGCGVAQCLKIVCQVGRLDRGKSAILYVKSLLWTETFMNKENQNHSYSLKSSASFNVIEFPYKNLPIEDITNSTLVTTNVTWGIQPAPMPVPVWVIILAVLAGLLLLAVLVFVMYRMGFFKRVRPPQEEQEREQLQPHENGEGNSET
Sequence of His-tagged human recombinant αVβ3 integrin (human) (P05106 27-718, chain 2 of 2, further chain): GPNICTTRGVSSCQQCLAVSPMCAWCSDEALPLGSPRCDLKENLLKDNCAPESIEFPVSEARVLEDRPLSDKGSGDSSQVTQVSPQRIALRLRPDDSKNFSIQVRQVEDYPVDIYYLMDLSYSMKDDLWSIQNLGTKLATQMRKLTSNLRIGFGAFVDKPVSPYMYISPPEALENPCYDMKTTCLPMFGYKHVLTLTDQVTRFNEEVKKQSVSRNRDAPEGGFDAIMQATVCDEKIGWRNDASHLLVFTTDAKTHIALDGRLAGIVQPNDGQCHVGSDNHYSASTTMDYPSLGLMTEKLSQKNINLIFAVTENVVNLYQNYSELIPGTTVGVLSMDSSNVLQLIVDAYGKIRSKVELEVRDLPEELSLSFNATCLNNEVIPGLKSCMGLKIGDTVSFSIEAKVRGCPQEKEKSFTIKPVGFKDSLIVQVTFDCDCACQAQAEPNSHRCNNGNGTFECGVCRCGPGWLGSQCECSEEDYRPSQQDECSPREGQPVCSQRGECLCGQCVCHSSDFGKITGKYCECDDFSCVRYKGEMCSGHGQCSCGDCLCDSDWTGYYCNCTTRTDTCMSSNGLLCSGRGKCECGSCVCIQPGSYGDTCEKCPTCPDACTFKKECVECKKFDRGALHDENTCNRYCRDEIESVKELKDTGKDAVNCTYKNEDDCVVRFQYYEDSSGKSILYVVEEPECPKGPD
Sequence of human vitronectin (P04004 20-478): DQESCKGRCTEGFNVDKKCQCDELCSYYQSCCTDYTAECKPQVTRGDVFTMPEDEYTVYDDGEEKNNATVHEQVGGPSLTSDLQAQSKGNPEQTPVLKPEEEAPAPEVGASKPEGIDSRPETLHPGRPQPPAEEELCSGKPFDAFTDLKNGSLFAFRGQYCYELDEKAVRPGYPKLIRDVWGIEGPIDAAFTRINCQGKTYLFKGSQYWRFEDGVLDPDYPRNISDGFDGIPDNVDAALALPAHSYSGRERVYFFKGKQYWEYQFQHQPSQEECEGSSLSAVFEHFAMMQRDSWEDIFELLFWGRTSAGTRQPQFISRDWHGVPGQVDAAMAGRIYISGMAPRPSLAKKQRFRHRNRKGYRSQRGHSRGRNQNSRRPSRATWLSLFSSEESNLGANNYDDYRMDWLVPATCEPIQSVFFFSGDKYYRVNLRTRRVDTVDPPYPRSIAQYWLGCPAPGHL

| Kd [1] | Kd [2] | Substance |
| --- | --- | --- |
| 54 nM |  | human plasma fibronectin (ligand) |
| 8.15 nM |  | native human fibrinogen (from UniProt P02671 36-866; P02675 45-491; P02679 27-453) (ligand) |
| < 0.001 nM | 303 nM | human vitronectin (from UniProt P04004 20-478) (ligand) |
